Test results as given in US20180244756A1 (US Dept. of Health and Human Services, published 2018).

T1: MERS-CoV S-[change] protein, England1 strain (MERS-CoV, England1 strain, UniProt K9N5Q8 19-1290)
T1 sequence: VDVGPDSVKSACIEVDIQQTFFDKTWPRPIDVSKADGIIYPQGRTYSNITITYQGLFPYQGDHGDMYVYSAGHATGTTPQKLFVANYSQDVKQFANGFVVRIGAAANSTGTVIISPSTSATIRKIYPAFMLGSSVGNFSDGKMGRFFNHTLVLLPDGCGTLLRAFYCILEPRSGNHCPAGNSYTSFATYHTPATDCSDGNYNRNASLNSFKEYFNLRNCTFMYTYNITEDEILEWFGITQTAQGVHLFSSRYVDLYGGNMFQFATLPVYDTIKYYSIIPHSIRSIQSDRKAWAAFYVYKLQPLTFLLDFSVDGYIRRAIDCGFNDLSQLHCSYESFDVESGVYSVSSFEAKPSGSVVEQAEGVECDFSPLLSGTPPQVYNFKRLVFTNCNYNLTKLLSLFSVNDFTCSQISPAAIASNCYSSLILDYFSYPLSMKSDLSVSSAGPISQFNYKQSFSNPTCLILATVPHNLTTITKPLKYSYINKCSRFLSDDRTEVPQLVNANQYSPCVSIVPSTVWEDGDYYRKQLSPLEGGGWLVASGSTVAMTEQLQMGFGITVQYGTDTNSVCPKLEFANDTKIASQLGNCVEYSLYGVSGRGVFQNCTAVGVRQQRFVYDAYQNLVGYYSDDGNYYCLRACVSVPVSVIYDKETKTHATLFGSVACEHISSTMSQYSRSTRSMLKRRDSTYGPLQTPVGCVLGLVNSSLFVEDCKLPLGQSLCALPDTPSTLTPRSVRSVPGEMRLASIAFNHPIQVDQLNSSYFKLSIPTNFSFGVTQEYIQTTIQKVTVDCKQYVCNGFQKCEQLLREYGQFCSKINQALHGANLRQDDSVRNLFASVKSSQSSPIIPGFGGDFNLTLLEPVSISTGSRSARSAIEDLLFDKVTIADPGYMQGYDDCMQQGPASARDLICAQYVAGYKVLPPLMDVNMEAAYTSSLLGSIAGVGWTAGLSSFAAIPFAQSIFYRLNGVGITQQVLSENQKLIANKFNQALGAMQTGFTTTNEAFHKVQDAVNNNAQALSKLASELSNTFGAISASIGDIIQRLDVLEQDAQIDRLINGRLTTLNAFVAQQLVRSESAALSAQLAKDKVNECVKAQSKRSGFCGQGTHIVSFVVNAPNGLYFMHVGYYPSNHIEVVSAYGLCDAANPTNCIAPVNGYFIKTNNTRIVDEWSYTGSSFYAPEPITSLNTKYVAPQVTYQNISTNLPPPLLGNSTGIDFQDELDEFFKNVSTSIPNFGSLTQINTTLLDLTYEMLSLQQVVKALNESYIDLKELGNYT

B1: G2 antibody (antibody, V domains shown)
VH: QVQLQQSGGELVKPGASVKLSCKTSGFTFSSSYISWLKQKPGQSLEWIAWIYAGTGGTEYNQKFTGKAQVTVDTSSSTAYMQFSSLTTEDSAIYYCARGGSSFAMDYWGQGTSVTVSS
VL: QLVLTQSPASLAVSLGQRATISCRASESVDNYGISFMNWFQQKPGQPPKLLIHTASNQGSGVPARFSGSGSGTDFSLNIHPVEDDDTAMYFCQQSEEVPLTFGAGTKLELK
B2: G4 antibody (antibody, V domains shown)
VH: QVQLQQSGPELVRPGVSVKISCKGSGYTFTDYAIHWVKQSHAKSLEWIGVFSTYYGNTNYNQKFKGRATMTVDKSSSTAYMELARLTSEDSAIYYCARKSYYVDYVDAMDYWGQGTSVTVSS
VL: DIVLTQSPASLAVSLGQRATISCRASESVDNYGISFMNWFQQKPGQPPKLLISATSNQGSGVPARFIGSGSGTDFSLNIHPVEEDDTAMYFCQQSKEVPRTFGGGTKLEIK

Molecular target: T1, MERS-CoV S-[change] protein, England1 …
Experiment: ELISA, hybridoma supernatant

Binder	ELISA (unit not given)
B1	0.58
B2	2.8
